Where no end group is shown, it is not given here. [ ]: non-standard residue; d: D form.
B1: SAA: Serum amyloid A, multi-functional apolipoprotein, 12- to 14-kDa, SEQ ID NO:19 (protein, listed as Homo sapiens)
chain: MKLLTGLVFCSLVLGVSSRSFFSFLGEAFDGARDMWRAYSDMREANYIGSDKYFHARGNYDAAKRGPGGVWAAEAISDARENIQRFFGHGAEDSLADQAANEWGRSGKDPNHFRPAGLPEKY

Columns and labels:
[1] = tested on: RA FLS; assay: Cell proliferation assay ([3H]-thymidine incorporation, cell counts) in RA FLS; type: cell-based, human; details: 72 h
Procedure: (§1) Fibroblast-like synoviocytes (FLS) were prepared from synovial samples obtained from patients suffering from RA and osteoarthritis (OA), all of whom were also undergoing total joint replacement surgery. The FLS were isolated from the synovial tissues in accordance with a previously described procedure (Cho, C. S., M. L. Cho, S. Y. Min, W. U. Kim, D. J. Min, S. S. Lee, S. H. Park, J. Choe, and H. Y. Kim. 2000. CD40 engagement on synovial fibroblast up-regulates production of vascular endothelial growth factor. J. Immunol. 164: 5055-5061).
(§2) In brief, fresh synovial tissues were minced into 2- to 3-mm pieces, then treated for 4 h with 4 mg/ml type I collagenase (Worthington Biochemical), and maintained in Dulbecco's Modified Eagle's Medium (DMEM) containing 10% FBS at 37° C. in an atmosphere containing 5% CO2. […] MH7A cells, the immortalized synoviocytes that harbor the SV40 T antigen, were grown in DMEM supplemented with 10% FBS, as previously described (Miyazawa, K, A. Mori, and H. Okudaira. 1998. Establishment and characterization of a novel human rheumatoid fibroblast-like synoviocyte line, MH7A, immortalized with SV40T antigen. J. Biochem. 124: 1153-1162), and then employed in some of the experiments. Human umbilical vein endothelial cells (HUVECs) were isolated from fresh human umbilical cords via collagenase (Worthington Biochemical) digestion, and then maintained in 20% FBS-containing M-199 medium (Sigma, St. Louis, Mo.), as previously described. All HUVECs were used after no more than five passages.
(§3) The RA FLS, OA FLS, and HUVECs were plated onto 24-well culture dishes at a density of 2×10^4 cells/well, and then permitted to attach overnight. After 24 h of serum starvation, the cells were treated for 72 h with a variety of mitogens. [^3H]-thymidine (1 μCi) was added to each of the wells prior to the final 6 h of incubation. Cell growth was also evaluated via cell counts. Control and mitogen-treated cells were harvested by trypsinization, and the number of cells was determined with a hemocytometer, under ×100 magnification.

[2] = tested on: OA FLS; assay: Cell proliferation assay ([3H]-thymidine incorporation, cell counts) in OA FLS; type: cell-based, human; details: 72 h
Procedure: as §1, §2, §3

[3] = tested on: RA FLS; assay: Apoptosis assay (MTT, DNA fragmentation ELISA) in RA FLS; type: cell-based, human; details: for serum starvation-induced apoptosis (MTT assay, DNA fragmentation ELISA): 72 h
Procedure: Synoviocyte apoptosis was induced via 3 days of serum deprivation, or by treating the cells for 12 h with either SNP (0.7 mM) or anti-Fas IgM (0.7 μg/ml) plus cyclohexamide (CHX; 1 μg/ml). The degree of apoptosis was then evaluated via MTT assay and ELISA for DNA fragmentation. In the MTT assay, FLS were seeded in 24-well culture plates at a density of 2×10^4 cells/well. After 96 h of incubation with SAA (SEQ ID NO:19) or media alone, MTT solution was added to each of the wells, and then incubated for 2 additional hours. The reaction was halted via the removal of MTT. Thereafter, DMSO (200 μL) was added in order to solubilize the formazan crystals. The plates were then subjected to 5 minutes of gentle shaking in order to ensure that the crystals had dissolved completely, and the absorbance was read at 540 nm with a microplate reader. The cellular DNA fragmentation assay was conducted using an ELISA kit (Roche Applied Science), based on the quantitative sandwich ELISA principle, using two mouse monoclonal antibodies (Roche Applied Science) targeted against DNA and 5-bromo-2′-deoxyuridine (BrdU).
In brief, the BrdU-labeled DNA fragments of the samples were bound to the immobilized anti-DNA antibody, fixing it within the wells of a microtiter plate. The immune-complexed BrdU-labeled DNA fragments were then denatured and fixed to the surfaces of the plates via the application of microwave irradiation. In the final step, the anti-BrdU peroxidase conjugate was allowed to react with the BrdU that had been incorporated into the DNA. After the removal of the unbound peroxidase conjugates, the quantity of peroxidase bound within the immune complex was determined photometrically, using TMB as a substrate.

[4] = tested on: RA FLS; assay: Intracellular Ca2+ measurement (Fluo3-AM) in RA FLS; type: cell-based, human
Procedure: The isolated FLS were incubated with Fluo3-AM working solution, containing 0.03% plutonic F-127 (the final concentration of Fluo3-AM was 20 μmol·L^−1) for 1 h at 37° C. After incubation, the cells were washed three times with normal or Na^+- and K^+-free Tyrode's solution, at 25° C. in order to remove the extracellular Fluo3-AM. Fluo3-AM fluorescence in the cells was elicited at 488 nm with a high-power Ar^+ laser, and the emission bands were detected at 530 nm with a photomultiplier. The fluorescence signal was detected using a confocal laser scanning system (Biorad Lasersharp MRA2, Oxfordshire, UK), equipped with a Nikon E-600 Eclipse microscope. The fluorescence intensity (FI) was measured both prior to (FI0) and after (FI) the addition of serum amyloid A (SAA) or phorbol-12-myristate-13-acetate (PMA) to either the normal the Na^+- and K^+-free Tyrode's solution. The change in [Ca^2+]i, was expressed in terms of the (FI−FI0)/FI0 ratio. A total of 50-120 images were scanned in each cell.

[5] = tested on: RA FLS; assay: Western blot analysis of signaling molecules in RA FLS; type: cell-based, human; details: for time of peak cyclin D1 expression: SAA 3 μM or WKYMVm 10 nM
Procedure: RA FLS were incubated for 24 h in DMEM without FBS, and then SAA (SEQ ID NO:19) (3 μM) was added to RA-FLS for the indicated times. The treated RA-FLS was then washed twice in phosphate-buffered saline (PBS), dissolved in sample buffer (50 mM Tris-HCl, 100 mM NaCl, 0.1% sodium dodecyl sulfate (SDS), 1% NP-40, 50 mM NaF, 1 mM Na3VO4, 1 μg/ml aprotinin, 1 μg/ml pepstatin, and 1 μg/ml leupeptin), boiled, separated via SDS-polyacrylamide gel electrophoresis, and transferred to nitrocellulose membranes. After immunoblot analysis with phospho-ERK1/2 (Thr 202/Tyr 204), phospho-Akt (Ser 473), phospho-STAT3 (Tyr 705), Cylin D1, or Bcl-2 antibodies, the membranes were stripped and re-incubated with anti-Actin antibody in order to detect total protein amounts.

[6] = tested on: C57BL/6 mice; assay: Mouse Matrigel plug assay; type: in vivo; details: 7 days; for vessels in Matrigel (stained sections): SAA 80 μg or WKYMVm 1 μg
Procedure: C57BL/6 mice (7 weeks of age) were given s.c. injections of 500 μl of Matrigel containing PBS, SAA (SEQ ID NO:19) (80 μg), or WKYMVm (SEQ ID NO:5) (1 μg). After 7 days, the skins of the mice were pulled back to expose the Matrigel plugs, which remained intact. After the noting and photographing of any quantitative differences, hemoglobin levels were measured via the Drabkin method, using a Drabkin reagent kit 525 (Sigma) for the quantitative assessment of blood vessel formation. The hemoglobin concentration was calculated from the parallel assay of a known amount of hemoglobin. The matrigel plugs were fixed in 4% formalin, embedded with paraffin, and stained using hematoxylin and eosin.

| Molecule | DNA synthesis activity / proliferation ([3H]-thymidine incorporation) [1] | DNA synthesis activity / proliferation ([3H]-thymidine incorporation) [2] | serum starvation-induced apoptosis (MTT assay, DNA fragmentation ELISA) [3] | release of intracellular Ca2+ ([4]; WKYMVm 10 nM) | time of peak cyclin D1 expression [5] [h] | activation of ERK and Akt ([5]; WKYMVm 1 to 1000 nM) | vessels in Matrigel (stained sections) [6] | cell numbers [1] | concentration of maximal effect on DNA synthesis [1] [µM] | cell numbers [2] | concentration of maximal effect on DNA synthesis [2] [µM] | DNA fragmentation induced by SNP (0.7 mM) or anti-Fas (0.7 μg/ml) plus CHX (1 μg/ml) ([3]; SAA 3 μM, 12 h) | increase in intracellular Ca2+ compared to basal levels ([4]; RA FLS, SAA 3 μM) [fold] | earliest detectable ERK1/2 and Akt phosphorylation after stimulation ([5]; 3 μM SAA) [min] | mean hemoglobin content of Matrigels ([6]; SAA 80 μg in Matrigel s.c.) [g/dL] |
| --- | --- | --- | --- | --- | --- | --- | --- | --- | --- | --- | --- | --- | --- | --- | --- |
| WKYMVm: specific agonist peptide for FPRL1, SEQ ID NO:5 (WKYMV[dM]; listed as Homo sapiens) | dose-dependent increase | not OA FLS | mitigating starvation-induced cell death | mimicked | 4 | dose and time-dependent activation | more vessels |  |  |  |  |  |  |  |  |
| B1 | increased in a dose-dependent fashion | increased in a dose-dependent fashion | dose-dependent inhibition |  | 4 |  | more vessels | dose-dependently increased | 5 | dose-dependently increased | 5 | blocked almost completely | 2.3 | 1 | 4.90 ± 0.66 |
